One experiment concerns the target T1, HTLV1 Tax1 PBM (HTLV1, also: biotin attached via linker (not given here)).
T1 chain: Biotin-SEKHFRETEV-OH
The experiment can be described thus: holdup assay.

The target of a further experiment is T2, RPS6KA1 PBM (human, also: biotin via linker: TTDS, Ahx or Ado-Ado).
T2 chain: Biotin-RVRKLPSTTL-OH
The experiment can be described thus: holdup assay; biotinylated PBM peptide saturating streptavidin resin, His6-MBP-PDZ (4 µM) in solution, 15 min at room temperature, no washing, filtration; 50 mM TRIS pH 7.5, 300 mM NaCl, 1 mM TCEP; binding intensity converted to a steady-state Kd given as pKd; PDZ in bacterial lysate (LYSC), single (SAPF) or double (DAPF) affinity purified, which one for a given pair is not given.

The target in experiment [1] is T3, p-3 phosphorylated RPS6KA1 PBM (human, not fully specified (N-terminus); also: N-terminal linker between biotin and peptide, type not given here).
T3 chain: RVRKLP[pS]TTL-OH
The description is as above.

Square brackets hold non-standard residues; d marks the D form. Ends that are not written are not given here. * marks the point of attachment. Biotin = O=C1N[C@H]2[C@H](CS[C@H]2CCCCC(=O)*)N1; pS = N[C@@H](COP(=O)(O)O)C(=O)O

B1: His6-MBP-SYNJ2BP PDZ (domain or fragment, human, UniProt P57105 13-100, looked up)
chain: EINLTRGPSGLGFNIVGGTDQQYVSNDSGIYVSRIKENGAAALDGRLQEGDKILSVNGQDLKNLLHQDAVDLFRNAGYAVSLRVQHRL
For B1, the pKd is 6.04 pKd (-log10 of Kd in M) with HTLV1 Tax1 PBM, 3.82 pKd (-log10 of Kd in M) with RPS6KA1 PBM and 4.48 pKd (-log10 of Kd in M) in experiment [1].

These data come from publication PMC9482650 (Nature Communications, 2022).
